Numbering of substitutions follows the chain as printed. No end group written: not given here.
Columns and labels:
[1] = target: EINsite peptides (Streptomyces coelicolor) (UniProt Q9KZP1); details: cited from earlier work
[2] = target: EINsc H186D EIN (Streptomyces coelicolor) (UniProt Q9KZP1); details: cited from earlier work
[3] = target: EINbsite peptide (active-site region of EIN^sc) (UniProt Q9KZP1); assay: ITC (Auto-ITC200) in two buffers of different ionisation enthalpy; details: pH 7.0; 25 C; no added salt stated; 10 mM Mes (pH 7.0) and 10 mM Mops (pH 7.0); delta H ion 3.55 and 5.05 kcal/mol
[4] = target: EINosite peptide (HPr-contacting region of EIN^sc) (UniProt Q9KZP1); assay: as above; details: pH 7.0; 25 C; no added salt stated; 10 mM Mes (pH 7.0) and 10 mM Mops (pH 7.0); delta H ion 3.55 and 5.05 kcal/mol
[5] = target: N-terminal domain of enzyme I, phosphomimetic mutant EINH186D H186D (UniProt Q9KZP1); assay: as above; details: pH 7.0; 25 C; no added salt stated; 10 mM Mes (pH 7.0) and 10 mM Mops (pH 7.0); delta H ion 3.55 and 5.05 kcal/mol
[6] = target: N-terminal domain of enzyme I, wild type (EIN^sc) (UniProt Q9KZP1); assay: as above; details: pH 7.0; 25 C; no added salt stated; 10 mM Mes (pH 7.0) and 10 mM Mops (pH 7.0); delta H ion 3.55 and 5.05 kcal/mol
[7] = target: Histidine phosphocarrier protein HPr (HPr^sc); assay: not stated here (value quoted from ref. [19]; presumably ITC in several buffers); details: pH not stated; cited from earlier work
[8] = target: T1, EINbsite + EINosite equimolar peptide mixture (Streptomyces coelicolor, UniProt Q9KZP1, C-terminal amidation, equimolar mixture of both peptides); assay: ITC
T1 chain 1: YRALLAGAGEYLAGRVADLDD
T1 chain 2: FVTEEGGPTSHSAILARA

[9] = target: T2, EINsc (enzyme I N-terminal domain) N-terminal domain (Streptomyces coelicolor, UniProt Q9KZP1); assay: ITC
T2 chain: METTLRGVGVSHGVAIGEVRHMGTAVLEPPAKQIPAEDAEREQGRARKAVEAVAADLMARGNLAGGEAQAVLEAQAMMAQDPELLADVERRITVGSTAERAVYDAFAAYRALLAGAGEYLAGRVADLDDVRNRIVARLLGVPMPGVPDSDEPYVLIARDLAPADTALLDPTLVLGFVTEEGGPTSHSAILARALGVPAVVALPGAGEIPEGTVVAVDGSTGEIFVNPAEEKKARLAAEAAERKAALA

[10] = target: T3, EINosite peptide (Streptomyces coelicolor, C-terminal amidation); assay: ITC
T3 chain: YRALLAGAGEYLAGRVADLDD

[11] = target: T4, EINbsite peptide (Streptomyces coelicolor); assay: ITC
T4 chain: FVTEEGGPTSHSAILARA-NH2

[12] = target: T5, EINH186D (enzyme I N-terminal domain) N-terminal domain (Streptomyces coelicolor, UniProt Q9KZP1); assay: ITC
T5 chain: T2 chain with H186D

[13] = target: the molecule itself; assay: ITC dilution

HPrsc (from UniProt O50515)
Kd [1]: 16 µM | Kd [2]: 10 µM

Histidine phosphocarrier protein HPr (HPr^bs)
n H [3]: -0.31 protons | n H [4]: 0.28 protons | n H [5]: -0.31 protons | n H [6]: 0.17 protons

N-terminal domain of enzyme I, wild type (EIN^sc)
n H [7]: 0.52 protons

B1: HPrbs (histidine phosphocarrier protein) (protein)
chain: MKTQQFTVIDPLGIHARPASQLVAKATPFASAIEVRTEEKAANLKSILGVMGLALKQGSQFTLYVEGEDEDQAFEALATLLTEMGLAQ
Kd [8]: 4.8 µM | Kd [9]: 1.9 µM | Kd [10]: 3 µM | Kd [11]: 3.9 µM | Kd [12]: 2.9 µM | Kd [13]: 6.5 µM

Source: article PMC3724859 (2013)
